The text below walks through data of the RNAGym collection of RNA variant scans (doi:10.7554/elife.80360).

Sequences and labels used below:
B1: HDV Ribozyme (parent)
chain: GGCCGGCAUGGUCCCAGCCUCCUCGCUGGCGCCGGCUGGGCAACAUUCCGAGGGGACCGUCCCCUCGGUAAUGGCGAAUGGGACCCA

In this data set the parent is B1. Briefly: self-cleavage, relative activity (ratio to wild type); higher = more cleavage; co-transcriptional.
In the case of GGCCGGCAUGGUCCCACCGUCCUCGCUGGCGCCGGCUGGGCAACAUUCCGAGGGGACCGUCCCCUCGGUAAUGGCGAAUGGGACCCA, the self-cleavage turned out to be 0. For CGCCGGCAUGGUCCCAGCCUCCUCGCUGGCGCCGGCUGGGCAACAUUCCGAGGGGACCGUCCCCUCGGUAAUGGCGCAUGGGACCCA the value was 0.

On to GGCCGGCAUGGUCCCAGCCUCCUCGCUGCCGCCGGCUGGGCAACACUCCGAGGGGACCGUCCCCUCGGUAAUGGCGAAUGGGACCCA, for which the self-cleavage amounted to 0.0755. GGCCGGCAUGGUCCCAGCCUCCUCGAUGGCGCCGGCUGGGCAACAUUCCGAGGGGACCGUCCCCUCGGUAAAGGCGAAUGGGACCCA: the self-cleavage was determined as 0.692. In the case of GGCAGGCAUGGUCCCAGCCUCCUCGCUGGCGCCGGCUGGGCAACAUUCCGAGGGGACCGUCCCCUCGGUAAUGGCGAAUGGGUCCCA it was 0.0959; in that of GGCCGGCAUGGUCCCAGCCCCCUCGCUGGCGCCGGCUGGGCAACCUUCCGAGGGGACCGUCCCCUCGGUAAUGGCGAAUGGGACCCA, 0. In the case of GGCCGGCAUGGUCCCAGCCUCCUCGCUGGCGCCGGCUGGACAACAUUCCGAGGGGACCGUCCGCUCGGUAAUGGCGAAUGGGACCCA it was 0.46; in that of GGCCGGCAUGGUCCCAGCCUCCUCGCUGGCGCCGGCUGGGCAACAUUCCGAGGGGACCUACCCCUCGGUAAUGGCGAAUGGGACCCA, 1.21; in that of GGCCGGCAUGGUCCCAGCCUCCUCGCUGGCGCCGGCUGGGCAACAUUCCGAGGGCACCGUCCCCUCGGUAAUGGCGAAUGGGACCCC, 1.11. On to GGCGGGCAUGGUCCCAGCCUCCUCGCUGGCGCCGGCUGGGCAACAUUCCGAGGGGACCGUCCCCUCGGUACUGGCGAAUGGGACCCA, for which the self-cleavage turned out to be 0.192.

Take GGCCGGCAUGGUCCCUGCCUCCUCGCUGGCGCCGGCUGGGCAACAUUCCCAGGGGACCGUCCCCUCGGUAAUGGCGAAUGGGACCCA: the self-cleavage was 1.03. For GGCCGGCAUGGUCUCAGCCUCCUCGCUGGCGCCGGCUGGGCAACAUUCCGAGGGGACCGUCCCCUCGGUAAUGGCGAAUGGGACCAA the value was 1.1; for GGUCGGCAUGGUCCCAGCCUCCUCGCUGGCGCCGGCUGGGCAACAUUCCGAGGGGACCGUCCCCUCGGAAAUGGCGAAUGGGACCCA, 0.831; for GGCCGGCAUGGUCCCAACCACCUCGCUGGCGCCGGCUGGGCAACAUUCCGAGGGGACCGUCCCCUCGGUAAUGGCGAAUGGGACCCA, 0.253. For GGCCGGCAUGGUCCCAGCCUCCUCGCUGGCGCCGGCUGGGCAACAUUCCGAGGGGACCGUCCCCUCGGUUAUGGCGAAUGAGACCCA the value was 0.332. For the variant GGCCGGCAUGGUCCCAGCCUCCUCGCUGGCGCCGGCUGGUCAACAUUCCGAGGGGACCGUCCCCUGGGUAAUGGCGAAUGGGACCCA, the self-cleavage was determined as 0.582. As to GGCCGGCAUGGUCCCAGCCUCCUCGCUGGCGCCGGCUGGGCAACAUUCCGAGGGGACCGUCCCCGCGGUAAAGGCGAAUGGGACCCA, the self-cleavage was found to be 0.739. GGCCGGCAUGGUCCCCGCCUCCUCGCUGGCGCCGGCUGGGCAACAAUCCGAGGGGACCGUCCCCUCGGUAAUGGCGAAUGGGACCCA: the self-cleavage is 0.262.

Regarding GGCCGGCAUGGUCCCUGCCUCCUCGCUGGCGCCGGCUGGGCAACAUUCCGAGGGGACCGUCCCCUCCGUAAUGGCGAAUGGGACCCA, the self-cleavage was 0.978. For GGCCGGCAUGGUCCCAGCCUCCUCGCUGGCGCCGGCUGGGCAACAUUCCGAGGGGACCGUCCCCUCGGUACUGGCGAUUGGGACCCA the value was 0.147; for GGCCGGCAUGGUCCCAGCCUCCUCGCUGGCGCCGGCUGGGCAACAUUCGGAGGGGACCCUCCCCUCGGUAAUGGCGAAUGGGACCCA, 0.793; for GGCCGGCAUGGUCCCAGCCUCCUCGCUCGCGCCGGCUGGCCAACAUUCCGAGGGGACCGUCCCCUCGGUAAUGGCGAAUGGGACCCA, 0.113. For GGCUGGCAUGGUCCCAGCCUCCUCGCUGGCGCCGGCUGGGCAACAUUCCCAGGGGACCGUCCCCUCGGUAAUGGCGAAUGGGACCCA the value was 0.917; for GGCCGGCAUGGUCCCAGCCUGCUCGCUGGCGCCGGCUGGGCAACAUUCCGAGGGGACCGUCCCCUCGGUAAUGGCGAAUGAGACCCA, 0.0604. In the case of GGCCGGCAUGGUCCCAGCCUCCUCGCUGGCGCCGGCUGGGCAACAUUCCUAGGGGACCGUCCCCUCGGUAAUGGAGAAUGGGACCCA it was 0.0773; in that of GGCCGGCAUGGUCCCAGCCUCCUCGCUGACGCCGGCUGGGCAACAUUCCGAGGGGACCGGCCCCUCGGUAAUGGCGAAUGGGACCCA, 0.0923. As for GGCCGGCAUGGUCCCAGCCUCCUCGCUGGCGCCGGCUGGGCAACAUUCGGAGGGGACCGUCCCCUCGGAAAUGGCGAAUGGGACCCA, the self-cleavage was determined as 0.798. For GGCCGGCAUGGUCCCAGCCUCCUCGCUGGCGCCGGCUGGGCAACAUUCCGAGGGGACCGGCCCCUCGGUAAUGGCGAAUGGGACCCG, the self-cleavage amounted to 0.921. With GGCCGGCAUGGUCCCAGCCUCCUCGCUGGCGCCGGCUGGGCAACAUUCCGAGGGGACCAUCCCCUCGGUAAUGGCGAAUGGGGCCCA, the self-cleavage was found to be 0.748. For the variant GGCCGGCAUGGUCCCAGCCUCCUCGCUGGCGCAGGCUGGGCAACAUUCCGAGGGGACCGUCCCCUCGGUAAUGGCGAAUUGGACCCA, the self-cleavage was 0.136. For GGCCGGCAUGGUCCCAGCCACCUCGAUGGCGCCGGCUGGGCAACAUUCCGAGGGGACCGUCCCCUCGGUAAUGGCGAAUGGGACCCA the value was 0.0594; for GGCUGGCAUGGUCCCAGCCUCCUCACUGGCGCCGGCUGGGCAACAUUCCGAGGGGACCGUCCCCUCGGUAAUGGCGAAUGGGACCCA, 0.111; for GGCCGGCAUGGUCCCAGCCUCCUCGCUGGCGCCGGCUGGGCAACAUUCCAAGGGGACCGUCCACUCGGUAAUGGCGAAUGGGACCCA, 0.436. For the variant GGCCGGCAUGGUCCCAGCCUCCUCCCUGGCGCCGGCUGGGCAACAUUCCGAGGGGACCGUCCCCUCGGUAAUGGUGAAUGGGACCCA, the self-cleavage was 0.

Turning to GGCCGGCAUGGUCCCAGCCUCCUCGCUGGCGCCGGCUGGGCAACAUUCCUAGGGGACAGUCCCCUCGGUAAUGGCGAAUGGGACCCA, the self-cleavage amounted to 0.997. Turning to GGCCCGCAUGGUCCCAGCCUCCUCGCUGGCGCCGGCUGGGCAACAUUCCGAGGGGACCGUCCCCUCGGUAAUGGCGAAAGGGACCCA, the self-cleavage was 0.185. In the case of GGGCGGCAUGGUCCCAGCCUCCUCGCUGGCGCCGGCUGGGCAACAUUCCGAGGGGACCGUCCCGUCGGUAAUGGCGAAUGGGACCCA it was 0.546; in that of GGCCGGCAUGGUCCCAGCCUCCUAGCUGGCGCCGGCUGGGAAACAUUCCGAGGGGACCGUCCCCUCGGUAAUGGCGAAUGGGACCCA, 0.369; in that of GGCCGGCAUGGUCCCAGCCACCUCGCUGGCGCCGGCUGGGCAACAUUCCGGGGGGACCGUCCCCUCGGUAAUGGCGAAUGGGACCCA, 0.

On to GGCCGGCAUGGUCCCGGUCUCCUCGCUGGCGCCGGCUGGGCAACAUUCCGAGGGGACCGUCCCCUCGGUAAUGGCGAAUGGGACCCA, for which the self-cleavage is 0.554. GGCCGGCAUGUUCCCAGCCUCCUCGCUGGCGCCGGCUGGGCAGCAUUCCGAGGGGACCGUCCCCUCGGUAAUGGCGAAUGGGACCCA: the self-cleavage is 0.0339. In the case of GGCCGGCAUGGACCCAGCCUCCUCGCUGGCGCCGGCUGGGCAACAUUCCGAGGGGUCCGUCCCCUCGGUAAUGGCGAAUGGGACCCA it was 0.403; in that of GGCCGGCAUGGUCCCAGCCUCCUCGCUGUCGCCGGCUGGGCAACAUUCCGAGGGGACCGUCCCCUCGGUAAUGGCGAAUGGGACCGA, 0.0346. With GGCCGGCUUGGUCCCAGCCUCCUCGCUGGCGCCGGUUGGGCAACAUUCCGAGGGGACCGUCCCCUCGGUAAUGGCGAAUGGGACCCA, the self-cleavage came to 0.554. For GGCCGGCAUGGUCCCAGCCUCCUCGCUGGCGCCGGCUGGGCAACAUUCCGAGGGGCCCGUCCCUUCGGUAAUGGCGAAUGGGACCCA the value was 1.12; for GGCCGGCAUAGUCCCAGCCUCCUCGCUGGCGCCGGCUGGGUAACAUUCCGAGGGGACCGUCCCCUCGGUAAUGGCGAAUGGGACCCA, 0.607; for GGCCGGCAUGGUCCCAGCCUCCUCGCUGGCGCCGGCUGGGCAACACUCCGAGGGGACCGUCCCCUCGGUAAUGGCGAAUGGGACCCU, 0.689. In the case of GGCCGGCAUGGUCCCAGCCUCCUCGCUGGCGCCGGCUGUGCAACAUACCGAGGGGACCGUCCCCUCGGUAAUGGCGAAUGGGACCCA, the self-cleavage stood at 0.554. For GGCCGGCAUGGUCCCAGCCUCCUCGCUGGCGGCGGCUGGGCAACAUUCCGAGGGGACCGUCCACUCGGUAAUGGCGAAUGGGACCCA the value was 0; for GGCCGGCAUGGUCACAGCCUCCUCGCUGGCGCCGGCUGGGCAACAUUCCGAGGGGACCGUCCCCGCGGUAAUGGCGAAUGGGACCCA, 0.688. With GGCCGGCAUGGUCCCAGCCUCCUCGCUGGCGCCGGCUGGGCAACAUUCCGAGGGGACCGUCUCUUCGGUAAUGGCGAAUGGGACCCA, the self-cleavage was 0.796. In the case of GGCCGGCAUGGUCCCAGCCUCCUCGCUGGCGCCGGCUGGGCAACAUUCCGAGGGGACCGUCCCAUCGGUUAUGGCGAAUGGGACCCA it was 0.752; in that of GGCCGGCAUGGUCCCAGCCUCCUCGCUGGCGCCGGCUGGGCAACAUUACGAAGGGACCGUCCCCUCGGUAAUGGCGAAUGGGACCCA, 0.926; in that of GGCCGGGAUGGUCCCAGCCUCCUCGCUGGCGCCGGCUGGGCAACAUUCCGAGGGGACCGUCCCCUCGGUAAUGGAGAAUGGGACCCA, 0. Regarding GGCCGGCAUGGUCCCAGCCUCCUCGCUGGCGCCGGCUGGGCAACAUGCCGAGGGGACCGUCCCCUGGGUAAUGGCGAAUGGGACCCA, the self-cleavage was 0.831.

In the case of GGCCGGCAUGGUCCCAGCCUCCUCGAUGGCGCCGACUGGGCAACAUUCCGAGGGGACCGUCCCCUCGGUAAUGGCGAAUGGGACCCA, the self-cleavage was 0.633. With GGCCGGCAUGGUCCCAGCCUCCUCGCUGGCGCCGGCUGGGCAACAUUCCGAGGGGACCGUUCACUCGGUAAUGGCGAAUGGGACCCA, the self-cleavage was 0.758. For GGCCGGCAUGGUCCCAGCCUCCUAGCUGGCGGCGGCUGGGCAACAUUCCGAGGGGACCGUCCCCUCGGUAAUGGCGAAUGGGACCCA, the self-cleavage was determined as 0.213.

As for GGCCGGCAUGGUCCCAGCCUCGUCGCUGGCGCCGGCUGGGCAACACUCCGAGGGGACCGUCCCCUCGGUAAUGGCGAAUGGGACCCA, the self-cleavage amounted to 0.116.

As for GGCCGGCAUGGCCCCAGCCUCCUCGCUGGCGCCGGCUGGGCAACAUUCCAAGGGGACCGUCCCCUCGGUAAUGGCGAAUGGGACCCA, the self-cleavage came out at 0.359.

Regarding GGCCGGCAUGGUCCUAGCCUCCUCGCUGGCGCCGGCUAGGCAACAUUCCGAGGGGACCGUCCCCUCGGUAAUGGCGAAUGGGACCCA, the self-cleavage is 0.188. In the case of GGCCGGCAUGGUCCCAGCAUACUCGCUGGCGCCGGCUGGGCAACAUUCCGAGGGGACCGUCCCCUCGGUAAUGGCGAAUGGGACCCA it was 0.142; in that of GGCCGGCAUGGUCCCAGCCUCCUCGCUGGCGCCGGCUGGGCAACAUUCCGAGGGGAACGUCCGCUCGGUAAUGGCGAAUGGGACCCA, 0.945.

As to GGCCUGCAUGGUCCCAGCCUCCUCGCUGGCGCCGGCUGGGCAACAUUCCGGGGGGACCGUCCCCUCGGUAAUGGCGAAUGGGACCCA, the self-cleavage was 0.875.
